# Test results from paper PMC7531523 (mAbs, 2020).
# B1: tPDL1.3 full-length human IgG1 (antibody, V domains shown)
# VH: QVQLVQSGAEVKKPGASVKVSCKASGFTFTSYDINWVRQATGQGLEWMGWMHPNSGITGYAQKFQGRVTMTRNTSISTAYMELSSLSSEDTAVYFCARYYYVSGSYDYWGQGTLVTVSS
# VL: EIVMTQSPATLSLSPGERATLSCWASQSVSSSYLSWYQQKPGQAPRLLIYGASTRATGIPARFSGSGSGTDFTLTISSLQPEDFAVYYCQQDYNLPYTFGQGTKLEIK
# B2: tPD1.16 full-length human IgG1 (antibody, V domains shown)
# VH: QVQLVESGGGVVQPGRSLRLSCAASGFTFSNYGMHWVRQAPGKGLEWVAVIWYDGTNKFYADSVKGRFTISRDNSKNTLYLQMNSLRAEDTAVYYCATNSDDYWGQGTLVTVSS
# VL: AIQMTQSPSSLSASVGDRVTITCRASQDIRNDLGWYQQKPGKAPKLLIYAASLLRSGVPSRFSGSGSGTDFTLTISSLQPEDFATYYCLQDNNYPRTFGQGTKVEIK
# B3: tOX40.24 full-length human IgG1 (antibody, V domains shown)
# VH: QVQLVESGGGVVQPGRSLRLSCAASGFTFRSYGMHWVRQAPGKGLEWLAIIWYDGSNKYYADSVKGRLTISRDNSKNTLYLQMNSLRAEDTAVYYCARDTQVAEAGFPHHHYYGMDVWGQGTTVTVSS
# VL: not shown
# Key:
# Experiment in all cases: flow cytometry on cells
# [1] = target: PD-L1 expressed on Flp-In CHO cells (Homo sapiens (), UniProt Q9NZQ7)
# [2] = target: PD-1 expressed on Flp-In CHO cells (Homo sapiens (), UniProt Q15116)
# [3] = target: OX40 expressed on Flp-In CHO cells (Homo sapiens (), UniProt P43489)
# OX40 expressed on Flp-In CHO cells, sequence (P43489 29-277): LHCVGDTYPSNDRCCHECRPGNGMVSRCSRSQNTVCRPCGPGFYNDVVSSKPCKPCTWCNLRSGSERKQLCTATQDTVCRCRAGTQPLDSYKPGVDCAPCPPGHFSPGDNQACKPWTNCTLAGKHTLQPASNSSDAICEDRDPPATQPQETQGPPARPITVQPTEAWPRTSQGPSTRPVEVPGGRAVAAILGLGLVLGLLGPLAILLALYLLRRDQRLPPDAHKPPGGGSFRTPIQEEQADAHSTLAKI
# PD-1 expressed on Flp-In CHO cells, sequence (Q15116 25-288): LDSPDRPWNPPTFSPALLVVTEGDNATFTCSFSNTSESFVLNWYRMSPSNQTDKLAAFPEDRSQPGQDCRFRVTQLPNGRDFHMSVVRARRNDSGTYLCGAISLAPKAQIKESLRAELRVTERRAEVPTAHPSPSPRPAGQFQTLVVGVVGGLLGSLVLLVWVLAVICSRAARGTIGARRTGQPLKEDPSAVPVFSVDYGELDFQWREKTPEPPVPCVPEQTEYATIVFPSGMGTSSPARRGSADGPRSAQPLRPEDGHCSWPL
# PD-L1 expressed on Flp-In CHO cells, sequence (Q9NZQ7 19-290): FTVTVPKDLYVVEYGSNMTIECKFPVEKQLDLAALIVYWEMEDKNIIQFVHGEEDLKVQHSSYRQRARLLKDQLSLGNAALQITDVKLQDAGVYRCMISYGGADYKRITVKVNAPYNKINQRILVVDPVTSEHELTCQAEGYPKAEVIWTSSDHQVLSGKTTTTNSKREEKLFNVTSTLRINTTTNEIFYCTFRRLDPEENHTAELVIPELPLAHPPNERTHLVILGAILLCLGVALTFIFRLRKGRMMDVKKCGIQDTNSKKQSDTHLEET
binder,measurement,setting,value
B1,EC50,[1],0.3 nM
B2,EC50,[2],2.8 nM
B3,EC50,[3],0.7 nM
